# From publication doi:10.1101/2020.09.30.318261 (bioRxiv, 2020)
# B1: 47D11 Fab fragment (Fab, V domains shown)
# VH: QVQLQESGPGLVKPSETLSLTCSVSGGSISSHYWSWIRQPPGKGLEWIGYIYYSGSTNHNPSLKSRVTISVDTSKNQFSLKLSSVTAADTAVYYCARGVLLWFGEPIFEIWGQGTMVTVSS
# VL: EIVMTQSPATLSVSPGERATLSCRASQSVSSSLAWYQQKPGQAPRLLIYGASTRAPGIPARFSGSGSGTEFTLTISSLQSEDFAVYYCQQYNNWPLTFGGGTKVEI
# Target: SARS-CoV prefusion stabilised spike ectodomain trimer (SARS-CoV Urbani, stabilised)
# Experiment: cryo-EM structure
binder,measurement,value
B1,stoichiometry N,3 Fab per spike trimer
